1 molecule from publication PMC4148193, “Chromatin Insulator Factors Involved in Long-Range DNA Interactions and Their Role in the Folding of the Drosophila Genome” (PLoS Genetics, 2014) can be followed below.

The target in series [1] is T1, CP190-C (Drosophila, UniProt Q24478 599-1096).
T1 sequence: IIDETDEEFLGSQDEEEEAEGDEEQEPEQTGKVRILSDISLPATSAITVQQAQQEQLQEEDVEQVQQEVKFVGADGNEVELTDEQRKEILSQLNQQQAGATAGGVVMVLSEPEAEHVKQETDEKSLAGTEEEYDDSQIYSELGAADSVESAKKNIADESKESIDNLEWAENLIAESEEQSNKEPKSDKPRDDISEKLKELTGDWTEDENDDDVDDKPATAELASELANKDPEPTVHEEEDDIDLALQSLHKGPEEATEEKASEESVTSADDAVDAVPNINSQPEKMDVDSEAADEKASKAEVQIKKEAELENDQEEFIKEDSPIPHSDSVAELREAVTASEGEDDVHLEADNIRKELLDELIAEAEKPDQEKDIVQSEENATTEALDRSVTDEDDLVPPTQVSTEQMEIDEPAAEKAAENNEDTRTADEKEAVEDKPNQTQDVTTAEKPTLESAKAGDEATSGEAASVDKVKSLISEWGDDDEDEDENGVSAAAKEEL
The series is described as follows: FCS; 50 nM; FA/FCS: 30 mM Tris/HCl pH 7.5, 100 mM NaCl, 20 uM ZnSO4, 5 mM mercaptoethanol, 0.01 mg/ml BSA, 0.004% Tween20, 2.5 nM DNA; EMSA: 150 mM NaCl, 30 mM Tris/HCl pH. The settings on record: protein: recombinant; tags: N-term 6xHis; blunt.

The target in series [2] is T2, CP190-BTB/POZ (Drosophila, UniProt Q24478 1-134).
T2 sequence: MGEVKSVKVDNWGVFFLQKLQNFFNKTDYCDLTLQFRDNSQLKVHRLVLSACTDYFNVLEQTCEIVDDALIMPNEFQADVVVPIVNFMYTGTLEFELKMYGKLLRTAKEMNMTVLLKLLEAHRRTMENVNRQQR
The series is described as follows: fluorescence anisotropy; FA/FCS: 30 mM Tris/HCl pH 7.5, 100 mM NaCl, 20 uM ZnSO4, 5 mM mercaptoethanol, 0.01 mg/ml BSA, 0.004% Tween20, 2.5 nM DNA; EMSA: 150 mM NaCl, 30 mM Tris/HCl pH. The settings on record: protein: recombinant; tags: His; chain copies: 2; blunt. Background: Fluorescence polarisation rises when a labelled molecule tumbles more slowly, as on binding a larger partner.

For series [3], the target named is T3, Chromator-C (Drosophila, UniProt Q86BS3 601-926).
T3 sequence: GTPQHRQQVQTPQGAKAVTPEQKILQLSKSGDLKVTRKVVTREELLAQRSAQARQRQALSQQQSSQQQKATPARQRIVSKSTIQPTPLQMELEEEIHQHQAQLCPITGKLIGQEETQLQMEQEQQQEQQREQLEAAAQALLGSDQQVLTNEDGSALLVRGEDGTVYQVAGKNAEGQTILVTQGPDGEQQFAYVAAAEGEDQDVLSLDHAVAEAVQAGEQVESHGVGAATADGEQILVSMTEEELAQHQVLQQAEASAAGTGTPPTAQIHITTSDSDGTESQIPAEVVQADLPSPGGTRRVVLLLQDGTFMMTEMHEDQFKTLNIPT
Described as above. The settings on record: protein: recombinant; tags: N-term 6xHis; blunt.

The target in series [4] is T4, BEAF32 (BEAF32B);CP190-C (Drosophila;Drosophila, UniProt Q94513;Q24478 1-282;599-1096, |).
T4 sequence 1: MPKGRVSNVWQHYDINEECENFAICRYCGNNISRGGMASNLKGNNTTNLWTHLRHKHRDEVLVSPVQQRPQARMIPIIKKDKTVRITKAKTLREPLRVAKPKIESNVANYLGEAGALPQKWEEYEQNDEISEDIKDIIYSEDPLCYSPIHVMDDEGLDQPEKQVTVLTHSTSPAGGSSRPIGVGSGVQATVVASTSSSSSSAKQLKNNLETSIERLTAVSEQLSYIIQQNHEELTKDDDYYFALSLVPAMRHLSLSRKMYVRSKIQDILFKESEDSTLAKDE
T4 sequence 2: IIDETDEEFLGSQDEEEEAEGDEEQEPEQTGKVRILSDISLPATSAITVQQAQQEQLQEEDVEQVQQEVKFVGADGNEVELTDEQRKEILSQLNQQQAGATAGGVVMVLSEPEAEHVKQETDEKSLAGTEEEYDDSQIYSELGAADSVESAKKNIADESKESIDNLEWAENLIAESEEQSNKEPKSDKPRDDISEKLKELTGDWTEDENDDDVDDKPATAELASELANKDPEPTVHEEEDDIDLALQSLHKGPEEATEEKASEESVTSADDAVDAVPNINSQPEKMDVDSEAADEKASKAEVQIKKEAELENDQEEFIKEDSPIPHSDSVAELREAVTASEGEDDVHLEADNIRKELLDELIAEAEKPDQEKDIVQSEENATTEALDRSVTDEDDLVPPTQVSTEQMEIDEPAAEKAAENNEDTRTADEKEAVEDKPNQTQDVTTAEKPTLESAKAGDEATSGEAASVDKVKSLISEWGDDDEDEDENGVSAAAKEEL
In words: FCS/PIE-FCCS; 400 nM BEAF32, 50 nM CP190-C; diffusion time slightly decreased, BEAF32 stays bound, no bridging; FA/FCS: 30 mM Tris/HCl pH 7.5, 100 mM NaCl, 20 uM ZnSO4, 5 mM mercaptoethanol, 0.01 mg/ml BSA, 0.004% Tween20, 2.5 nM DNA; EMSA: 150 mM NaCl, 30 mM Tris/HCl pH. The settings on record: protein: recombinant;recombinant; tags: N-term MBP; C-term 6xHis;N-term 6xHis; blunt. In general terms: A gel shift assay detects complexes by their altered migration in electrophoresis.

The target in series [5] is T5, BEAF32 (BEAF32B);Chromator-C (Drosophila;Drosophila, UniProt Q94513;Q86BS3 1-282;601-926, |).
T5 sequence 1: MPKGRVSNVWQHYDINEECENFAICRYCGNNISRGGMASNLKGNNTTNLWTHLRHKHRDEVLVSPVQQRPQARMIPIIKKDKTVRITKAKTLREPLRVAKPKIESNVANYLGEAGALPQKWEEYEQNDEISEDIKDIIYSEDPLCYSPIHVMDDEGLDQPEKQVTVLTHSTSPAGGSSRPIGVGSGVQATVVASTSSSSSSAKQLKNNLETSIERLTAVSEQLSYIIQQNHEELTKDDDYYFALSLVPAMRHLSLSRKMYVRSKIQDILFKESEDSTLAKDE
T5 sequence 2: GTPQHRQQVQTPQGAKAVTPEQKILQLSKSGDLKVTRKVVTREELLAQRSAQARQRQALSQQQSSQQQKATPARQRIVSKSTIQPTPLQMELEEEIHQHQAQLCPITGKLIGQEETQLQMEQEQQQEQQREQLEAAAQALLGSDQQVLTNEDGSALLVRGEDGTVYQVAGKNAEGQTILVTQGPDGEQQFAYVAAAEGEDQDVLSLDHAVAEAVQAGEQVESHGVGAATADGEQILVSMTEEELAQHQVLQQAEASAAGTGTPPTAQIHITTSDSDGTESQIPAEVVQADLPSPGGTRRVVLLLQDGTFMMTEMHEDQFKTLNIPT
In words: FCS/PIE-FCCS; 800 nM BEAF32, 100 nM Chromator-C; diffusion time slightly decreased, BEAF32 stays bound, no bridging; FA/FCS: 30 mM Tris/HCl pH 7.5, 100 mM NaCl, 20 uM ZnSO4, 5 mM mercaptoethanol, 0.01 mg/ml BSA, 0.004% Tween20, 2.5 nM DNA; EMSA: 150 mM NaCl, 30 mM Tris/HCl pH. The note with it: protein: recombinant;recombinant; tags: N-term MBP; C-term 6xHis;N-term 6xHis; blunt.

B1: DNAS (dsDNA)
DNA 1: AGAAGTCAGCGCGATAGCATCGATATTTTCGTGACACGCTTGTCATCCGATAGGTAGT
DNA 2: ACTACCTATCGGATGACAAGCGTGTCACGAAAATATCGATGCTATCGCGCTGACTTCT
With B1, the binding result is “no binding” in series [1]; “no binding” in series [2]; “no binding” in series [3]; “binds” in series [4]; “binds” in series [5].
